Measurements taken from patent US20210246206A1 (Stanford University, published 2021).

Molecular target: T1, purified human CD47-Fc fusion protein (human, UniProt Q08722 19-139, limits assumed)
T1 construct: Coated on ELISA plates at 1.0 ug/ml; also called soluble CD47; human CD47 soluble protein; not shown: Fc part
Experiment: ELISA on coated human CD47 soluble protein (FIG. 11)

T1 sequence (Q08722 19-139 limits assumed): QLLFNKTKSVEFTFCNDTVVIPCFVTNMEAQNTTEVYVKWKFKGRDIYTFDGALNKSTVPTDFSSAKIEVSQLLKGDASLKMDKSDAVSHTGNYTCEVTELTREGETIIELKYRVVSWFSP

binding result	Binder
binds	chimeric 5F9 antibody (antibody, V domains shown, Mouse 5F9 variable regions in a chimeric native IgG; detection was with anti-human kappa) VH: QVQLQQPGAELVKPGASVMMSCKASGYTFTNYNMHWVKQTPGQGLEWIGTIYPGNDDTSYNQKFKDKATLTADKSSSAAYMQLSSLTSEDSAVYYCARGGYRAMDYWGQGTSVTVSS VL: DVLMTQTPLSLPVSLGDQASISCRSSQSIVYSNGNTYLGWYLQKPGQSPKLLIYKVSNRFSGVPDRFSGSGSGTDFTLKISRVEAEDLGVYHCFQGSHVPYTFGGGTKVEIK
binds	chimeric 8B6 antibody (antibody, V domains shown, Mouse 8B6 variable regions in a chimeric native IgG; detection was with anti-human kappa) VH: EVQLQQSGPELVKPGASVKMSCKASGYTFTTYVVHWVKQTPGQGLEWIGYINPYNDGTKYNEKFKGKATLTSDKSSSTAYMEFSSLTSEDSAVYYCVRGYYRYGYTMDYWGQGTSVTVSS VL: DIVMTQSPATLSVTPGDRVSLSCRASQNFSDYLHWYQQKSHESPRLLIKYVSHSISGIPSRFSGSGSGSDFTLSINSVEPEDVGVYYCQNGHSFPPTFGGGTKLEIK
